Test results: patent US11857697B2, “Compositions and methods for obtaining 3-dimensional lung-like epithelium and related uses thereof” (THE REGENTS OF THE UNIVERSITY OF MICHIGAN, priority 2017, dated 2024)
“Also recorded” adds a separate entry of the source.

Test system: e13.5 CD1 mouse epithelial lung buds
Assay: EdU incorporation quantified by flow cytometry in cultured mouse lung buds
Type: cell-based
Conditions: 50-100 ng/mL FGF7 versus 1-10 ng/mL, one week culture, 1 hour EdU pulse
Experimental: Epithelial lung buds were dissected from e13.5 CD1 mice and plated in a matrigel droplet as described above. 3-4 individual buds from one mouse were placed in each droplet and were pooled to serve as a single biological replicate. Three droplets (corresponding to 3 independent biological samples) were assigned to each experimental group, receiving either 1, 10, 50 or 100 ng/mL of FGF7 for 7 days. Media was changed every 2-3 days. Cells were incubated with EdU for 1 hour and stained with the Click-It EdU Alexa Fluor 488 system (ThermoFisher Cat# C10337) according to the manufacturer's instructions. As a control, wells that received 10 ng/mL of FGF7 for 7 days were taken through the EdU steps but were not stained were used to set the gates. For analysis, lung buds were broken into a single cell suspension. 1 mL of accutase (Sigma Cat# A6964) was added to a 15 mL conical tube containing pooled epithelial buds and cells were incubated at 37 degrees Celsius with frequent visual inspection until clumps of cells were no longer visible. 3 mL of basal media (see below) was added to each tube, and cells were centrifuged at 300 g for 5 minutes at 4 degrees Celsius. The supernatant was then withdrawn, and cells were resuspended with 1 mL sterile PBS, filtered through a 70 uM strainer to remove any cell clumps and transferred to a cell sorting tube. […]

B1: Recombinant Human Fibroblast Growth Factor 7 (protein, UniProt P21781 32-194, looked up)
Fibroblast growth factor 7: CNDMTPEQMATNVNCSSPERHTRSYDYMEGGDIRVRRLFCRTQWYLRIDKRGKVKGTQEMKNNYNIMEIRTVAVGIVAIKGVESEFYLAMNKEGKLYAKKECNEDCNFKELILENHYNTYASAKWTHNGGEMFVALNQKGIPVRGKKTKKEQKTAHFLPMAIT
notes: Recombinant human growth factor from R&D systems, used at 10 ng/mL unless otherwise noted
- Proliferation (EdU labeled cells): increased proliferation significantly; also recorded: significant increase in labeled cells
